# Measured values reported in the supplement of paper PMC6757056.
# ± gives the standard deviation of the averaged measurements.
# B1: library; a variant is named by its letters at N, in order (parent)
# chain: GCUGUCACCGGUGCUUGGUACGUUAUAUUCAGCCGGUCUGAUGAGUCUNNNNNNAGACGAAACAGC
# How the values were obtained:
# (6R,S)-folinic acid [1] = variants of: B1; assay: FACS-Seq fitted mean relative fluorescence mCherry/BFP without ligand (log10 relative fluorescence); HEK293T overexpressing SLC46A1; higher = higher reporter protein expression; settings: without (6R,S)-folinic acid; ligand present: no
# Summary of the method: (§1)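 To measure fluorescence, a normal distribution was fitted to read counts across sorted bins. The reporter libraries were HEK293T cells transduced by lentivirus with mCherry under ribozyme-switch control and an EF1α-BFP marker, enriched and then kept with or without ligand for 48 h. Sorting used 6 mCherry/BFP bins, and bin genomic DNA was PCR-amplified and sequenced on MiSeq. Fitted means of log10(mCherry/BFP) were scaled to five spiked-in control ribozymes.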
# (6R,S)-folinic acid [2] = variants of: B1; assay: normalized RNA/DNA level without ligand (relative to sTRSVctl = 100) (log10 (% of sTRSVctl)); HEK293T overexpressing SLC46A1; higher = less ribozyme self-cleavage, higher mRNA level; settings: without (6R,S)-folinic acid; ligand present: no
# Summary of the method: (§2)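 For each 6-well well, 4 µg of library plasmid encoding mCherry-linked ribozyme switches, or eGFP-linked ones in some ligand experiments, was transfected into HEK293T. Any ligand was added 1 h before transfection, and RNA was extracted with EDTA 72 h after it, then reverse-transcribed, amplified, barcoded and sequenced. RNA level was obtained by dividing RNA reads by DNA reads, normalizing to a spiked-in non-cleaving sequence or to the top sequences, then scaling and log-transforming. The top set was 25 sequences, scaling was ×100 with log10, and ≥100 DNA reads were required.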
# (6R,S)-folinic acid [3] = variants of: B1; assay: FACS-Seq fitted mean relative fluorescence mCherry/BFP with ligand (log10 relative fluorescence); HEK293T overexpressing SLC46A1; ligand concentration (+) FACS-Seq: 6 mM; higher = higher reporter protein expression; settings: with (6R,S)-folinic acid; ligand present: yes
# Summary of the method: as §1
# (6R,S)-folinic acid [4] = variants of: B1; assay: normalized RNA/DNA level with ligand (relative to sTRSVctl = 100) (log10 (% of sTRSVctl)); HEK293T overexpressing SLC46A1; ligand concentration (+) RNA-Seq: 6 mM; higher = less ribozyme self-cleavage, higher mRNA level; settings: with (6R,S)-folinic acid; ligand present: yes
# Summary of the method: as §2
Variant,"FACS-Seq fitted mean (log10) ((6R,S)-folinic acid [1])","normalized RNA/DNA level without ligand (log10) ((6R,S)-folinic acid [2])","FACS-Seq fitted mean (log10) ((6R,S)-folinic acid [3])","normalized RNA/DNA level with ligand (log10) ((6R,S)-folinic acid [4])"
GCUGUCACCGGUGCUUGGUACGUUAUAUUCAGCCGGUCUGAUGAGUCUAUCUGGAGACGAAACAGC,0.349 ± 0.012,1.92 ± 0.023,0.27 ± 0.019,2.02 ± 0.042
GCUGUCACCGGUGCUUGGUACGUUAUAUUCAGCCGGUCUGAUGAGUCUGUCUGGAGACGAAACAGC,0.433 ± 0.03,2.027 ± 0.0089,0.385 ± 0.25,2.07 ± 0.063
GCUGUCACCGGUGCUUGGUACGUUAUAUUCAGCCGGUCUGAUGAGUCUUUCUGGAGACGAAACAGC,0.429 ± 0.029,1.887 ± 0.0036,0.696 ± 0.12,2.03 ± 0.037
GCUGUCACCGGUGCUUGGUACGUUAUAUUCAGCCGGUCUGAUGAGUCUAUCUUAAGACGAAACAGC,0.327 ± 0.012,2.042 ± 0.0064,0.337 ± 0.14,2.03 ± 0.043
GCUGUCACCGGUGCUUGGUACGUUAUAUUCAGCCGGUCUGAUGAGUCUCUCUUAAGACGAAACAGC,0.211 ± 0.012,2.0064 ± 0.0006,0.143 ± 0.3,2 ± 0.03
GCUGUCACCGGUGCUUGGUACGUUAUAUUCAGCCGGUCUGAUGAGUCUAUCUUGAGACGAAACAGC,0.284 ± 0.023,1.952 ± 0.0043,0.288 ± 0.16,2.01 ± 0.028
GCUGUCACCGGUGCUUGGUACGUUAUAUUCAGCCGGUCUGAUGAGUCUGUCUUGAGACGAAACAGC,0.0388 ± 0.018,1.974 ± 0.0081,0.151 ± 0.32,2.05 ± 0.049
GCUGUCACCGGUGCUUGGUACGUUAUAUUCAGCCGGUCUGAUGAGUCUAUGAAAAGACGAAACAGC,0.535 ± 0.016,1.944 ± 0.0099,0.656 ± 0.15,1.98 ± 0.033
GCUGUCACCGGUGCUUGGUACGUUAUAUUCAGCCGGUCUGAUGAGUCUCUGAAAAGACGAAACAGC,0.38 ± 0.12,1.986 ± 0.0076,0.578 ± 0.071,2 ± 0.014
GCUGUCACCGGUGCUUGGUACGUUAUAUUCAGCCGGUCUGAUGAGUCUGUGAAAAGACGAAACAGC,-0.0108 ± 0.075,1.956 ± 0.0062,0.313 ± 0.017,1.981 ± 0.016
GCUGUCACCGGUGCUUGGUACGUUAUAUUCAGCCGGUCUGAUGAGUCUUUGAAAAGACGAAACAGC,0.358 ± 0.051,1.936 ± 0.014,0.286 ± 0.27,2.02 ± 0.028
GCUGUCACCGGUGCUUGGUACGUUAUAUUCAGCCGGUCUGAUGAGUCUAUGAAGAGACGAAACAGC,0.432 ± 0.049,1.836 ± 0.0092,0.578 ± 0.14,1.99 ± 0.048
GCUGUCACCGGUGCUUGGUACGUUAUAUUCAGCCGGUCUGAUGAGUCUGUGAAGAGACGAAACAGC,0.207 ± 0.012,1.9352 ± 0.0013,0.436 ± 0.27,2.02 ± 0.043
GCUGUCACCGGUGCUUGGUACGUUAUAUUCAGCCGGUCUGAUGAGUCUUUGAAGAGACGAAACAGC,0.386 ± 0.00085,1.75 ± 0.026,0.374 ± 0.21,1.981 ± 0.0095
GCUGUCACCGGUGCUUGGUACGUUAUAUUCAGCCGGUCUGAUGAGUCUAUGAAUAGACGAAACAGC,0.232 ± 0.017,1.929 ± 0.013,0.0739 ± 0.05,2 ± 0.022
GCUGUCACCGGUGCUUGGUACGUUAUAUUCAGCCGGUCUGAUGAGUCUGUGAAUAGACGAAACAGC,0.0592 ± 0.055,1.944 ± 0.0083,0.217 ± 0.099,2 ± 0.043
GCUGUCACCGGUGCUUGGUACGUUAUAUUCAGCCGGUCUGAUGAGUCUAUGACAAGACGAAACAGC,0.187 ± 0.069,1.987 ± 0.0094,0.323 ± 0.037,2 ± 0.032
GCUGUCACCGGUGCUUGGUACGUUAUAUUCAGCCGGUCUGAUGAGUCUGUGACAAGACGAAACAGC,0.277 ± 0.2,1.989 ± 0.003,0.446 ± 0.1,1.99 ± 0.05
GCUGUCACCGGUGCUUGGUACGUUAUAUUCAGCCGGUCUGAUGAGUCUGUGACCAGACGAAACAGC,0.7143 ± 0.0036,2.03 ± 0.0039,0.585 ± 0.22,2.02 ± 0.028
GCUGUCACCGGUGCUUGGUACGUUAUAUUCAGCCGGUCUGAUGAGUCUAUGACGAGACGAAACAGC,0.318 ± 0.062,1.941 ± 0.0037,0.394 ± 0.14,2.02 ± 0.022
GCUGUCACCGGUGCUUGGUACGUUAUAUUCAGCCGGUCUGAUGAGUCUAUGACUAGACGAAACAGC,0.261 ± 0.032,2.01 ± 0.025,0.313 ± 0.27,2.02 ± 0.03
